Measured values from article doi:10.1101/2025.06.24.661301, “Homodimerized Arpins: Binding to Arp2/3 Complexes with Positive Synergy to Inhibit Lamellipodia-Dependent Tumor Metastasis” (bioRxiv, 2025).
No end group written: not given here.

Target: Arp2/3 complex (human, UniProt P61158 1-418; P61160 1-394; O15143 1-372)
Assay: SPR; Biacore 8K, 25°C, PBS with 0.05% Tween-20; Arp2/3 immobilised on CM5 chip; analytes injected at 30 μL/min, 60 s association, 60 s dissociation; Arpin^FM 3.125-200 μM, ArpinCT, GST-aCT and D-aCT 0.625-40 μM, AI-designed variants 0.156-10 μM
Details: both partners purified

B1: D-aCT (dual-tailed peptide of two Arpin CTs linked at their N-termini by BM(PEG)3) (peptide)
chain: CSSGGSSGGSSGGSSGGGASWTDNIMAQKSSKGAAAEIREQGDGAEDEEWDD
modifications: not fully specified (residue 1); also: dimer: N-terminal Cys linked to N-terminal Cys of second chain by BM(PEG)3
Binder B1 has a Kd of 5.5 µM.
